US20040053329A1 (published 2004)

Biological target: T1, endoglin (CD105) of human endothelial cells (HUVEC and other endothelial cells) (human, UniProt P17813 26-658)
T1 construct: whole, on cells; In the immunoprecipitation the protein came from a non-denaturing lysate of 35S-methionine-labelled HUVEC; In immunofluorescence and flow cytometry it was on cells; also called endoglin-expressing HUVEC; endoglin-expressing endothelial cells
T1 sequence (looked up): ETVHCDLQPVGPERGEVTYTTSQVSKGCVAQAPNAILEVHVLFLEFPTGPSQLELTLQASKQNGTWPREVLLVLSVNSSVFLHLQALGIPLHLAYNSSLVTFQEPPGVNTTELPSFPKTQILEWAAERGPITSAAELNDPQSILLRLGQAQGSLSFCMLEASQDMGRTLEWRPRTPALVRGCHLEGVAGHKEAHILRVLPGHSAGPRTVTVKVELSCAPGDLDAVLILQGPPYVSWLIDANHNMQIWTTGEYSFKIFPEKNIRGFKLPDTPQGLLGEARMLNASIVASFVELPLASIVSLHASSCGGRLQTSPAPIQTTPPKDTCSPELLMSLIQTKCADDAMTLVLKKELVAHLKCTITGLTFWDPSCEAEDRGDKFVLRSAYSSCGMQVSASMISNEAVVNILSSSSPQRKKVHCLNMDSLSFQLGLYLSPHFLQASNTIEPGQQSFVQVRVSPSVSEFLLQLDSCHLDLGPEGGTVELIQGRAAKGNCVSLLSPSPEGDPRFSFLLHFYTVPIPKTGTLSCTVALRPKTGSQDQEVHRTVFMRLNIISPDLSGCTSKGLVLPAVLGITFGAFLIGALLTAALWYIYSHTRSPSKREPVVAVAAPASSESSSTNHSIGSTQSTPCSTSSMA
Test: immunoprecipitation from non-denaturing lysate of 35S-methionine-labelled HUVEC
Procedure: Endoglin from primary human umbilical cord endothelial cells (HUVEC) was detected by means of immunoprecipitation under non-denaturing conditions. For this purpose, the [³⁵S]-methionine-labelled endothelial cells were lysed with lysing buffer (10 mM Tris-HCl pH 7.5, 150 mM NaCl, 1% sodium deoxycholate, 1% Nonidet P40) for 30 min at 4° C. […] The complexes were washed several times with lysing buffer and finally resuspended in 20 μL SDS-PAGE charge buffer. After separation in the SDS-polyacrylamide gel, the gel was immobilised for 30 min in 30% methanol and 10% acetic acid and subsequently mixed with amplification solution (Amersham-Buchler). The gel was dried and exposed with an x-ray film.

B1: scFv C4 (anti-endoglin polypeptide C4 in the form of an scFv fragment) (scFv, not shown: small tags and cut ends)
scFv: AQVQLVQSGAEVKKPGATVKISCKVSGYTFTDYYMHWVQQAPGKGLEWMGLVDPEDGETIYAEKFQGRVTITADTSTDTAYMELSSLRSEDTAVYYCARRTTHGPDPHWGQGTLVTVSSGGGGSGGGGSGGSALDIQLTQSPSSLSASVGDRVTITCRASQSISSYLNWYQRKPGKAPKLLIYAASSLQSGVPSRFSGSGSGTDFTLTISSLQPEDFATYYCQQSYSTRTFGQGTKLEIKR
notes: also called polypeptide scFv C4; anti-endoglin-antibody
B1: binds.
